Measured values as given in PMC10878280 (Journal of Virology, 2024).

Target: neuraminidase (NA) of A/California/04/2009 (Influenza A virus A/California/04/2009 …, UniProt C3W5S3, strain)
Assay: fluorescence imaging with FRAP of labelled antibody on transfected cells
Conditions: one partner purified

B1: CD6 IgG (antibody, V domains shown)
VH: QVKLQESGGGLVQPKGSLKLSCAASGFTFNTYAMNWVRQAPGKGLEWVARIRSKSNNYATFYADSVKDRFTISRDDSQSMLYLQMHNLKTDDTAMYYCVRPSIYYYASGYLDVWGAGTTVTVSS
VL: QIVLSQSPAILSASPGEKVTMTCRTSSSVSYMHWYQQKPGSSPKPWIYATSNLASGVPFRFSGSGSGTSYSLTISRVEAEDAATYYCQQWNSNPPTFGGGTKLEIK
notes: not shown: ybbR, C-terminal, kept; copies: 2 + 2
  binding result: binds
